Experimental data: US20260028402A1 (published 2026)
Positions count from the first letter of the chain named. Like-named read-outs stand apart in the source and are kept apart here. Blank lines part the entries; values can stand above or below the binder they belong to.

Columns and labels:
[1] = biological target: T1, cynomolgus monkey PD-L1 on cells (cynomolgus monkey, UniProt G7PSE7 19-290); assay: FACS binding
[2] = biological target: T1, cynomolgus monkey PD-L1 on cells; assay: FACS binding; remark: listed apart in the source
[3] = biological target: CynoCD100-HEK293 (cynomolgus monkey); assay: FACS
[4] = biological target: CynoCD100-His (cynomolgus monkey); assay: ELISA
[5] = biological target: CynoCD100-HEK293 (cynomolgus monkey); assay: FACS; remark: listed apart in the source
[6] = biological target: CynoCD100-His (cynomolgus monkey); assay: ELISA; FIG. 5C
[7] = biological target: T2, full-length human CD100 protein HuCD100 on cells (human, UniProt Q92854 22-862); assay: FACS
[8] = biological target: T3, full-length mouse CD100 protein MusCD100 on cells (mouse, UniProt O09126 24-861); assay: FACS
T3 chain: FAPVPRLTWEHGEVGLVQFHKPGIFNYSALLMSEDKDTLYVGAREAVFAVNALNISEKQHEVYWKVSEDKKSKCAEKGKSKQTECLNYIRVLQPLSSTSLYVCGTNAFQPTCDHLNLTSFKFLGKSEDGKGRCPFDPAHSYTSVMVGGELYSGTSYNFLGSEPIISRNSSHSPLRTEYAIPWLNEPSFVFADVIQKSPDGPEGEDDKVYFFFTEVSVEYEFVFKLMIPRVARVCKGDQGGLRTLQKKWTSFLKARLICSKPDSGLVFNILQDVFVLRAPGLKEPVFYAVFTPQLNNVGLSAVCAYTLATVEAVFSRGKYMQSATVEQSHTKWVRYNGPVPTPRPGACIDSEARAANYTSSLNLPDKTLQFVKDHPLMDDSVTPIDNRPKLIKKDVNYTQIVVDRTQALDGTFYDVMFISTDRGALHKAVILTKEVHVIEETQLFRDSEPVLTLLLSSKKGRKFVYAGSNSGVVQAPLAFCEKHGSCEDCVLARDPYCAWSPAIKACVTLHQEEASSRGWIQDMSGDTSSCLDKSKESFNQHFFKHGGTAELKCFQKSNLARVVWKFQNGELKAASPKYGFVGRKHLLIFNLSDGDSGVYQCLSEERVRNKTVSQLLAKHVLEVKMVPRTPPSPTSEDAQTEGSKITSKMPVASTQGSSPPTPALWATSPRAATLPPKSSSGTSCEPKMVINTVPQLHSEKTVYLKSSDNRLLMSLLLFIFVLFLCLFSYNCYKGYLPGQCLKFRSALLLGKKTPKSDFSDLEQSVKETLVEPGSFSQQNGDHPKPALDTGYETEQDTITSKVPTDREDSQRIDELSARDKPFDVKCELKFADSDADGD

[9] = biological target: CynoCD100-HEK293 (cynomolgus monkey); assay: FACS; remark: listed apart in the source
[10] = biological target: T3, full-length mouse CD100 protein …; assay: FACS
[11] = biological target: T2, full-length human CD100 protein HuCD100 …; assay: FACS; remark: listed apart in the source
[12] = biological target: CynoCD100-His (cynomolgus monkey); assay: ELISA; FIG. 5F
[13] = biological target: T4, HuCD100-His (human, UniProt Q92854 22-734); assay: ELISA; FIG. 5D
[14] = biological target: T5, MusCD100-His (mouse, UniProt O09126 24-733); assay: ELISA; FIG. 5E
T5 chain: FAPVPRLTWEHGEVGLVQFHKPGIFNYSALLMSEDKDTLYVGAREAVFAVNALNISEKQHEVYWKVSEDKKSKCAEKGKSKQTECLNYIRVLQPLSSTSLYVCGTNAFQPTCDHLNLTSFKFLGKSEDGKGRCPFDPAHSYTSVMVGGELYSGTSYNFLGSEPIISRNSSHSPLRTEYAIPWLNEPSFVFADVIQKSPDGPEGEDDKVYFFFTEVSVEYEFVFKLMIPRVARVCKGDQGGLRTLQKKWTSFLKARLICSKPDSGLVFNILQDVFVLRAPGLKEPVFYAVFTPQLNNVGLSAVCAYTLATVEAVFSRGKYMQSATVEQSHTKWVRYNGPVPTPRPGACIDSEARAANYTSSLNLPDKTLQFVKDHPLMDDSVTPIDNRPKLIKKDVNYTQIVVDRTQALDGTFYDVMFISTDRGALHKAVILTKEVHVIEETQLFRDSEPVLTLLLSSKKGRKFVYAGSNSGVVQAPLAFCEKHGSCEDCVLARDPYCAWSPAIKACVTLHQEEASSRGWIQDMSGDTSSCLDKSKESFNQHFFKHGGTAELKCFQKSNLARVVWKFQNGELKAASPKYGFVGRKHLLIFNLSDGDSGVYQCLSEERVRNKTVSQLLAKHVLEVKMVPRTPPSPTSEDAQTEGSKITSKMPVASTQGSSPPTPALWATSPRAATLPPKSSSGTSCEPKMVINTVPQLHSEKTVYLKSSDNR

[15] = biological target: T2, full-length human CD100 protein HuCD100 …; assay: FACS; HuPBMC cells
[16] = biological target: T2, full-length human CD100 protein HuCD100 …; assay: FACS binding; FIG. 11D
[17] = biological target: T6, HuCD100-Fc (in-house prepared) (human, UniProt Q92854 22-734, biotinylated in the Plexin binding and blocking assays (sites not given)); assay: FACS blocking; HuPlexin-B1-HEK293, FIG. 12B
[18] = biological target: T6, HuCD100-Fc (in-house prepared); assay: FACS blocking; HuPlexin-B2-HEK293, FIG. 12D
[19] = biological target: T7, MusCD100-Fc (mouse, UniProt O09126 24-733, biotinylated in the Plexin binding and blocking assays (sites not given)); assay: FACS blocking; MusPlexin-B1-HEK293, FIG. 12F
T7 chain: T5 chain

[20] = biological target: T6, HuCD100-Fc (in-house prepared); assay: FACS blocking; blocking of binding to HuPlexin-B1-HEK293
[21] = biological target: T6, HuCD100-Fc (in-house prepared); assay: FACS blocking; FIG. 8B, blocking of binding to HuPlexin-B2-HEK293
[22] = biological target: T4, HuCD100-His; assay: ELISA
[23] = biological target: T5, MusCD100-His; assay: ELISA

T1 sequence (G7PSE7 entry or part of it): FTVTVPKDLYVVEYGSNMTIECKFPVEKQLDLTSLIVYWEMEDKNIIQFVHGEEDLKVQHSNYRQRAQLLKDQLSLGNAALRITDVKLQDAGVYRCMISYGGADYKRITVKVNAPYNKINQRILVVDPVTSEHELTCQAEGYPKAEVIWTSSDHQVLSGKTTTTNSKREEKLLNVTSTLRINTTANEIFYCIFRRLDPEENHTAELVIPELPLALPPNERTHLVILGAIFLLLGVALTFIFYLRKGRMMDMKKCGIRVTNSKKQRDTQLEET

B3: A9-VHH2 (antibody, V domains shown)
VH: QVQLVESGGGLVQAGGSLRLSCAASGFSLDYYAIGWFRQAPGKEREEVSCISSSGGSTDYADSVKGRFTISRAYAKVYLQMNSLRAEDTAVYYCAAGVSGSVCPPLIGAYWGQGTLVTVSS
- EC50 [3]: 516 pM
- EC50 [4]: 743 pM

B4: A9 (antibody, V domains shown)
VH: B3 VH with R85K, A86P, L116Q
- EC50 [5]: 776 pM
- EC50 [3]: 470 pM
- EC50 [6]: 178 pM

B5: A9-VHH1 (antibody, V domains shown)
VH: B3 VH with A14P, R85K, A86P
- EC50 [3]: 552 pM
- EC50 [4]: 169 pM

B6: A9-VHH3 (antibody, V domains shown)
VH: B3 VH with E44G, R45L
- EC50 [3]: 835 pM
- EC50 [4]: 1310 pM

B7: A31 (antibody, V domains shown)
VH: EVQLVESGGGLVQPEGSLRLSCAASGFPLDYYAIGWFRQAPGKEREGVSCIISGGSTKYSASVKGRFTISRDSANNTVYLQMNSLKPEDTAVYFCAVSWSCDLFPRDTYGWDAWGQGTLVTVSS
- EC50 [5]: 579 pM
- EC50 [7]: 374 pM
- EC50 [8]: 945 pM
- EC50 [9]: 327 pM
- EC50 [10]: 1150 pM
- EC50 [11]: 467 pM
- EC50 [12]: 51.2 pM
- EC50 [13]: 45.2 pM
- EC50 [14]: 59400 pM
- EC50 [15]: 754 pM
- EC50 [16]: 367 pM
- IC50 [17]: 837 pM
- IC50 [18]: ~4240 pM
- IC50 [19]: 9860 pM
- IC50 [20]: 1060 pM
- IC50 [21]: 2480 pM

Further lines, results first:

- EC50 [1]: 0.242 µg/mL
B1: m18 (antibody, V domains shown)
VH: EVQLVESGGGLVQPGGSLRLSCAASRTDSNIHGMHWYRQAPGKGREWVGMIFIDGNTIVTDSVKGRFTISRDNAKNTLYLQMNTLRAEDTAVYYCAADSRGYGRAWGQGTTVTVSS

- EC50 [2]: 0.988 µg/mL
B2: Avelumab (antibody, V domains shown)
VH: EVQLLESGGGLVQPGGSLRLSCAASGFTFSSYIMMWVRQAPGKGLEWVSSIYPSGGITFYADTVKGRFTISRDNSKNTLYLQMNSLRAEDTAVYYCARIKLGTVTTVDYWGQGTLVTVSS
VL: QSALTQPASVSGSPGQSITISCTGTSSDVGGYNYVSWYQQHPGKAPKLMIYDVSNRPSGVSNRFSGSKSGNTASLTISGLQAEDEADYYCSSYTSSSTRVFGTGTKVTVLG

- EC50 [10]: 1780 pM
- EC50 [11]: 504 pM
- EC50 [22]: 202 pM
- EC50 [23]: 230 pM
- EC50 [4]: 131 pM
- EC50 [15]: 356 pM
- EC50 [16]: 413 pM
- IC50 [17]: 800 pM
- IC50 [18]: 5430 pM
- IC50 [19]: 4840 pM
B8: A31-VHH1 (antibody, V domains shown)
VH: B7 VH with N75K, K86R, P87A
